According to patent US20240336682A1 (SHENGHE CHINA BIOPHARMACEUTICAL, published 2024):
Like-named read-outs stand apart in the source and are kept apart here. Blank lines part the entries; values can stand above or below the binder they belong to.

How the values were obtained:
Human-CD24-His [1] = target: T1, Human-CD24-His (human, UniProt P25063 27-59); assay: ELISA, Human-CD24-His coated at 1 ug/mL, HRP goat anti-human IgG-Fc
T1 construct: also called CD24 protein; not shown: His tag
T1 chain (looked up): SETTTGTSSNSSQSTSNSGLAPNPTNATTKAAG
Description: (§1) Human-CD24-His was diluted to 1 μg/mL with PBS buffer at pH 7.4, added into the 96-well ELISA plate at 100 μL per well, coated overnight at 4° C., and blocked with 1% BSA blocking solution for 1 hour. The plate was washed 3 times with PBST, and the constructed antibodies were diluted to 20 μg/mL with 0.5% BSA sample diluent as the starting concentration, and then diluted by 3-fold gradient (11 gradients in total) and incubated at 37° C. for 1 h at 100 μL per well. The plate was washed 3 times with PBST, and then HRP-labelled goat anti-human IgG-Fc (jackson Cat: 109-035-098) was diluted with the sample diluent at 1:10000. 100 μL was added into each well, and incubated at room temperature for 1 hour. […] The absorbance value of each well in the 96-well plate was determined by selecting the wavelength of 450 nm and the reference wavelength of 570 nm on a multifunctional enzyme marker, and the absorbance value (OD)=OD₄₅₀ₙₘ−OD₅₇₀ₙₘ. The logarithm of the concentration of the constructed antibodies were taken as the abscissa, and the measured absorbance value of each well was taken as the ordinate, and the Sigmoidaldose-response (Variable Slope) method (GraphPad Prism software, GraphPad Software, San Diego, California) was selected for nonlinear regression to obtain the binding curve of the target antibodies to the CD24 protein.

Human-CD24-His [2] = target: T1, Human-CD24-His; assay: as above
Description: as §1

Human-NKP30-His [3] = target: T2, Human-NKP30-His (human, UniProt O14931 19-135); assay: ELISA, Human-NKP30-His coated at 0.5 ug/mL, HRP goat anti-human IgG-Fc
T2 construct: also called NKP30 protein; not shown: His tag
T2 sequence (looked up): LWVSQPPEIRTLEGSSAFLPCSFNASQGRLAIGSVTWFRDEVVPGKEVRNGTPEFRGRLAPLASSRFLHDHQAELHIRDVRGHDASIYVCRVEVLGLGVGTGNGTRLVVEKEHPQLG
Description: (§2) Human-NKP30-His was diluted to 0.5 μg/mL with PBS buffer at pH 7.4, added into the 96-well ELISA plate at 100 μL per well, coated overnight at 4° C., and blocked with 1% BSA blocking solution for 1 hour. The plate was washed 3 times with PBST, and the constructed antibodies were diluted to 10 μg/mL with 0.5% BSA sample diluent as the starting concentration, and then diluted by 3-fold gradient (11 gradients in total). A negative control (blank well and IgG1 isotype control) and a positive control were set, and the positive control was a NKP30 humanized antibody (sequence shown in SEQ ID No.32), and incubated at 37° C. for 1 h at 100 μL per well. […] The absorbance value of each well in the 96-well plate was determined by selecting the wavelength of 450 nm and the reference wavelength of 570 nm on a multifunctional enzyme marker, and the absorbance value (OD)=OD₄₅₀ₙₘ−OD₅₇₀ₙₘ. The logarithm of the concentration of the constructed antibodies were taken as the abscissa, and the measured absorbance value of each well was taken as the ordinate, and the Sigmoidaldose-response (Variable Slope) method (GraphPad Prism software, GraphPad Software, San Diego, California) was selected for nonlinear regression to obtain the binding curve of the target antibody to NKP30 protein.

Human-NKP30-His [4] = target: T2, Human-NKP30-His; assay: as above; remark: listed apart in the source
Description: as §2

Human-NKP30-His [5] = target: T2, Human-NKP30-His; assay: as above; remark: listed apart in the source
Description: as §2

Human-NKP30-His [6] = target: T2, Human-NKP30-His; assay: as above; remark: listed apart in the source
Description: as §2

TGFβ1 [7] = target: T3, TGFβ1 (UniProt P01137 279-390, limits assumed); assay: ELISA, TGFb1 coated at 1 ug/mL, HRP goat anti-human IgG-Fc
T3 construct: also called TGFβ1 protein
T3 sequence (P01137 279-390 limits assumed): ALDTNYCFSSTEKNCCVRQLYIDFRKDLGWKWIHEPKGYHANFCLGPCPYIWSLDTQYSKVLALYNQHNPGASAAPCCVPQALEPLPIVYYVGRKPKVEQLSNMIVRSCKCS
Description: (§3) TGFβ1 was diluted to 1 μg/mL with PBS buffer at pH 7.4, added into the 96-well ELISA plate at 100 μL per well, coated overnight at 4° C., and blocked with 1% BSA blocking solution for 1 hour. The plate was washed 3 times with PBST, and the constructed expressing antibodies were diluted to 20 µg/mL with 0.5% BSA sample diluent as the starting concentration, and then diluted by 3-fold gradient (11 gradients in total). A negative control (blank well and IgG1 isotype control) and a positive control were set, and the positive control was TGF-βR2 (Acro, Cat: TG2-H5252), and incubated at 37° C. for 1 h at 100 μL per well. The plate was washed 3 times with PBST, and then HRP-labelled goat anti-human IgG-Fc was diluted with the sample diluent at 1:10000. […] The absorbance value of each well in the 96-well plate was determined by selecting the wavelength of 450 nm and the reference wavelength of 570 nm on a multifunctional enzyme marker, and the absorbance value (OD)=OD₄₅₀ₙₘ−OD₅₇₀ₙₘ. The logarithm of the concentration of the constructed antibodies were taken as the abscissa, and the measured absorbance value of each well was taken as the ordinate, and the Sigmoidaldose-response (Variable Slope) method (GraphPad Prism software, GraphPad Software, San Diego, California) was selected for nonlinear regression to obtain the binding curve of the target antibodies to the TGFβ1 protein.

TGFβ1 [8] = target: T3, TGFβ1; assay: as above; remark: listed apart in the source
Description: as §3

TGFβ1 [9] = target: T3, TGFβ1; assay: as above; remark: listed apart in the source
Description: as §3

EC50 (read off the curve) (Human-CD24-His [1]): ~0.006 µg/mL
EC50 (read off the curve) (Human-CD24-His [2]): ~0.01 µg/mL
B1: Positive control (antibody, human IgG1, kappa, V domains shown)
VH: QVQLVQSGSELKKPGASVKVSCKASGYIFTDYAIHWVRQAPGQGLEWMGFINTATGEPTYADDFKGRFVFSLDTSVSTAYLQISSLKAEDTAVYFCTSGVHWGQGTLVTVSS
VL: DIQMTQSPSTLSASVGDRVTITCSASSSVSSMHWYQQKPGKAPKLLIYSTSNLASGVPSRFSGSGSGTEYTLTISSLQPDDFATYYCHHWTSYMYTFGGGTKVEIKR
notes: The sheet only prints 'Positive control'; also called CD24 monoclonal antibody

EC50 (read off the curve) (Human-NKP30-His [3]): ~0.03 µg/mL
EC50 (read off the curve) (Human-NKP30-His [4]): ~0.03 µg/mL
EC50 (read off the curve) (Human-NKP30-His [5]): ~0.03 µg/mL
EC50 (read off the curve) (Human-NKP30-His [6]): ~0.02 µg/mL
B2: NKP30 humanized antibody (antibody, V domains shown)
VH: EVQLVESGGGLVQPGGSLRLSCAASGITFSRSVMGWFRQAPGKLRELVAGITSDDNTDYADSVKGRFTISRDNSKNTLYLQMNSLRAEDTAVYYCNILPDSRLGWGQGTLVTVSS
notes: It was detected with anti-human IgG-Fc

EC50 (read off the curve) (TGFβ1 [7]): ~0.03 µg/mL
EC50 (read off the curve) (TGFβ1 [8]): ~0.03 µg/mL
EC50 (read off the curve) (TGFβ1 [9]): ~0.04 µg/mL
B3: TGF-βR2 (Acro, Cat: TG2-H5252) (receptor, UniProt P37173 23-159, looked up)
chain: TIPPHVQKSVNNDMIVTDNNGAVKFPQLCKFCDVRFSTCDNQKSCMSNCSITSICEKPQEVCVAVWRKNDENITLETVCHDPKLPYHDFILEDAASPKCIMKEKKKPGETFFMCSCSSDECNDNIIFSEEYNTSNPD
notes: Bought reagent
